The text below walks through data of patent US20250011363A1, “OPTIMIZED SHORTENED PEPTIDE THAT BINDS TO ACETYLCHOLINE RECEPTOR, AND USE THEREOF” (SKINMED CO., LTD., priority 2021, published 2025).

In test [1] the target is acetylcholine receptor. Put plainly: SPR, AchR immobilized on CM5 chip, peptide at 10 µM. For orientation: In SPR one partner is held on a chip, and binding of the other changes the refractive index at the surface.
The target of test [2] is acetylcholine receptor. Put plainly: SPR, peptide at 10 µM on acetylcholine receptor.

For RWRCK [5mer-400], in test [1], the Binding affinity (RU) turned out to be 70 RU.

For KRQRR [5mer-114], the Binding affinity (RU) in test [1] came out at 82 RU.

In test [1], KVFLR [5mer-415] showed a Binding affinity (RU) of 77 RU.

As to KLFCK [5mer-388], the Binding affinity (RU) in test [2] is 78 RU.

The molecule RLRYR [5mer-402] showed a Binding affinity (RU) in test [1] of 86 RU.

Molecule RGVYR [5mer-385] had a Binding affinity (RU) in test [2] of 51 RU. In test [2], KWVYR [5mer-93] came in with a Binding affinity (RU) of 79 RU. The molecule RWLTR [5mer-413] yielded a Binding affinity (RU) in test [1] of 56 RU. The same measure, in the same setting: to KRRLK [5mer-110] belongs 76 RU.

Turning to KRITK [5mer-89], the Binding affinity (RU) in test [2] was found to be 77 RU.

In the case of RGRRK [5mer-95], in test [2], the Binding affinity (RU) was found to be 68 RU. In test [1], KLYLR [5mer-416] displayed a Binding affinity (RU) of 67 RU.

The molecule KVFRR [5mer-391] displayed a Binding affinity (RU) in test [2] of 72 RU. On to RQQYR [5mer-101], for which the Binding affinity (RU) in test [1] was 55 RU. In test [1], KWIQR [5mer-399] came in with a Binding affinity (RU) of 62 RU.

In turn, RQITR [5mer-87] returned a Binding affinity (RU) in test [2] of 55 RU. In test [2], RRLCK [5mer-86] registered a Binding affinity (RU) of 55 RU.

Consider RWRSK [5mer-116], for which the Binding affinity (RU) in test [1] was 64 RU. Turning to KVRCK [5mer-414], the Binding affinity (RU) in test [1] is 71 RU.

As to KRFCR [5mer-390], the Binding affinity (RU) in test [2] came out at 64 RU.

For the molecule RWVCK [5mer-395], the Binding affinity (RU) in test [2] was 50 RU.

On to RSRLR [5mer-392], for which the Binding affinity (RU) in test [2] stood at 87 RU. As to RGVLR [5mer-401], the Binding affinity (RU) in test [1] is 52 RU. For the molecule KVIRK [5mer-100], the Binding affinity (RU) in test [1] was 80 RU. RRLYK [5mer-403] gave a Binding affinity (RU) in test [1] of 64 RU.

With KQIRK [5mer-119], the Binding affinity (RU) in test [1] stood at 60 RU. As to RQILK [5mer-120], the Binding affinity (RU) in test [1] turned out to be 68 RU.

KVVCR [5mer-396] gave a Binding affinity (RU) in test [2] of 53 RU. For the molecule RWRTR [5mer-418], the Binding affinity (RU) in test [1] amounted to 53 RU. With RVVLK [5mer-104], the Binding affinity (RU) in test [1] is 74 RU. In test [2], KRRRK [5mer-394] yielded a Binding affinity (RU) of 66 RU.

Take RLQCR [5mer-109]: the Binding affinity (RU) in test [1] was 68 RU. With KVFRK [5mer-408], the Binding affinity (RU) in test [1] amounted to 74 RU. With RVYTR [5mer-419], the Binding affinity (RU) in test [1] worked out at 67 RU. RGRSR [5mer-412] had a Binding affinity (RU) in test [1] of 81 RU. For the molecule KRQLR [5mer-97], the Binding affinity (RU) in test [2] was determined as 52 RU. Still for that read-out and setting: to RQIQK [5mer-91] belongs 55 RU. Turning to RRFLR [5mer-410], in test [1], the Binding affinity (RU) stood at 76 RU. As to RGQQR [5mer-105], the Binding affinity (RU) in test [1] turned out to be 50 RU.

Turning to RSFLK [5mer-386], the Binding affinity (RU) in test [2] worked out at 78 RU. Take RGFSK [5mer-102]: in test [1], the Binding affinity (RU) is 82 RU.

In test [2], KSLQR [5mer-393] registered a Binding affinity (RU) of 75 RU.

For RVICK [5mer-118], the Binding affinity (RU) in test [1] amounted to 87 RU. Take RWICK [5mer-99]: the Binding affinity (RU) in test [1] is 58 RU. KSVLK [5mer-111] displayed a Binding affinity (RU) in test [1] of 85 RU. In test [2], RRILR [5mer-387] displayed a Binding affinity (RU) of 52 RU.

RVRLK [5mer-92]: in test [2], the Binding affinity (RU) was found to be 62 RU. The molecule RWLLR [5mer-115] had a Binding affinity (RU) in test [1] of 75 RU. In test [1], RSVYK [5mer-117] gave a Binding affinity (RU) of 69 RU. Molecule KGQCR [5mer-398] registered a Binding affinity (RU) in test [2] of 71 RU. KRLRK [5mer-113] gave a Binding affinity (RU) in test [1] of 79 RU.

In turn, KWRRR [5mer-389] came in with a Binding affinity (RU) in test [2] of 57 RU. KWYCK [5mer-98] displayed a Binding affinity (RU) in test [2] of 68 RU. In test [1], RQIYK [5mer-407] showed a Binding affinity (RU) of 58 RU.

KLFCR [5mer-420] yielded a Binding affinity (RU) in test [1] of 84 RU. In the case of RWYTK [5mer-90], the Binding affinity (RU) in test [2] is 86 RU. On to RWFQR [5mer-94], for which the Binding affinity (RU) in test [2] turned out to be 50 RU. In test [1], KVYLR [5mer-406] displayed a Binding affinity (RU) of 84 RU. In the case of KGYLK [5mer-404], the Binding affinity (RU) in test [1] was 83 RU. In turn, RWVSR [5mer-107] showed a Binding affinity (RU) in test [1] of 56 RU. Still for that read-out and setting: the same measure for KGRLR [5mer-411]: 66 RU; for RWFLK [5mer-103]: 62 RU; for KWQLK [5mer-108]: 77 RU.

In test [1], KWLQK [5mer-417] gave a Binding affinity (RU) of 65 RU. For the molecule RRVQK [5mer-88], the Binding affinity (RU) in test [2] came to 73 RU. In test [2], RVLYR [5mer-96] returned a Binding affinity (RU) of 55 RU. On to KRYYR [5mer-112], for which, in test [1], the Binding affinity (RU) was determined as 58 RU.

Molecule KLLQR [5mer-106] displayed a Binding affinity (RU) in test [1] of 78 RU.

With KQIYK [5mer-409], the Binding affinity (RU) in test [1] turned out to be 62 RU. For the molecule KGVLK [5mer-85], the Binding affinity (RU) in test [2] came out at 74 RU.

Regarding KSYTK [5mer-405], in test [1], the Binding affinity (RU) was 68 RU. RRITK [5mer-397]: the Binding affinity (RU) in test [2] worked out at 52 RU.
